Positions count from the first letter of the chain named. Names may count otherwise.
Legend:
[1] = HP-SEC as in Example 20; Fc:Fc self-oligomerization
[2] = HP-SEC, PBS pH 7.4 as mobile phase; Fc:Fc self-oligomerization
[3] = HP-SEC, 0.15 M NaCl/0.1 M citrate pH 5.0; Fc:Fc self-oligomerization
[4] = HP-SEC, 0.15 M NaCl/0.1 M citrate pH 6.8; Fc:Fc self-oligomerization
[5] = HP-SEC, 0.1 M Na2SO4/0.1 M sodium phosphate pH 6.8; Fc:Fc self-oligomerization
[6] = HP-SEC, 0.1 M Na2SO4/0.1 M sodium phosphate pH 6.8 (Example 23); Fc:Fc self-oligomerization
[7] = HP-SEC as in Example 20, fraction of peak area; Fc:Fc self-oligomerization

B1: IgG1-005-E345R/E430G/S440Y (protein)
chain: ASTKGPSVFPLAPSSKSTSGGTAALGCLVKDYFPEPVTVSWNSGALTSGVHTFPAVLQSSGLYSLSSVVTVPSSSLGTQTYICNVNHKPSNTKVDKRVEPKSCDKTHTCPPCPAPELLGGPSVFLFPPKPKDTLMISRTPEVTCVVVDVSHEDPEVKFNWYVDGVEVHNAKTKPREEQYNSTYRVVSVLTVLHQDWLNGKEYKCKVSNKALPAPIEKTISKAKGQPRRPQVYTLPPSREEMTKNQVSLTCLVKGFYPSDIAVEWESNGQPENNYKTTPPVLDSDGSFFLYSKLTVDKSRWQQGNVFSCSVMHGALHNHYTQKYLSLSPGK
What does the source list for B1?
% multimeric (HP-SEC) [1]: IgG1-005-RGY (79.2% multimeric); % multimers (HP-SEC) [2]: IgG1-005-RGY (84% multimers); fraction monomeric species (HP-SEC) [3]: >99% of the protein eluting as a monomeric species; fraction multimer (HP-SEC) [3]: The fraction multimer dropped to less than 1%; oligomerization (HP-SEC) [4]: in citrate pH 6.8 the antibody displayed 84% oligomerization; fraction monomeric species (HP-SEC) [5]: 21% of the population eluted in a peak observed at the expected elution time for a monomeric species; fraction oligomer (HP-SEC) [5]: a large fraction oligomer which was estimated at 79%; fraction monomeric species (HP-SEC) [6]: 23% of the population eluted as a monomeric species; fraction oligomer (HP-SEC) [6]: a fraction oligomer of 77%

B2: IgG1-005-E345R/E430G/S440K (protein)
chain: B1 chain with Y323K
With B2 as the protein, how does the “% multimers (HP-SEC)” value [2] read?
The value was “IgG1-005-RGK (2.2% multimers)”.

B3: IgG1-M1-RGY (C. albicans mannan antibody M1g1 with E345R/E430G/S440Y) (protein)
chain: B1 chain
For B3, which “fraction oligomer (HP-SEC)” value [1] is on record?
Its value is “IgG1-M1-RGY (74.5%)”.

B4: IgG1-005-E345R/E430G/Y436I/S440K (protein)
chain: B1 chain with Y319I, Y323K
For B4, which “% multimers (HP-SEC)” value [2] is on record?
The value was “IgG1-005-RGIK (1.8% multimers)”.

B5: IgG1-005-E345R/E430G/K439E/S440Y (protein)
chain: B1 chain with K322E
For B5, which “% multimers (HP-SEC)” value [2] is on record?
The value was “IgG1-005-RGEY (2.7% multimers)”.

B6: Fc-RGY (IgG1m(f) Fc fragment with E345R, E430G and S440Y) (protein)
chain: EPKSCDKTHTCPPCPAPELLGGPSVFLFPPKPKDTLMISRTPEVTCVVVDVSHEDPEVKFNWYVDGVEVHNAKTKPREEQYNSTYRVVSVLTVLHQDWLNGKEYKCKVSNKALPAPIEKTISKAKGQPRRPQVYTLPPSREEMTKNQVSLTCLVKGFYPSDIAVEWESNGQPENNYKTTPPVLDSDGSFFLYSKLTVDKSRWQQGNVFSCSVMHGALHNHYTQKYLSLSPGK
For B6, which “fraction monomers (HP-SEC)” value [7] is on record?
Its value is “approximately 28% monomers”.

And the “fraction oligomers (HP-SEC)” value [7]?
The value was 72% oligomers distributed over multiple states.

From patent US20150175707
